According to patent US20230147840A1 (Chugai, published 2023):
Where two headings read alike, the source gives them in different places.

T1: Human CD3eg linker (human)
T1 construct: Single-chain soluble construct; also called recombinant human CD3
T1 chain: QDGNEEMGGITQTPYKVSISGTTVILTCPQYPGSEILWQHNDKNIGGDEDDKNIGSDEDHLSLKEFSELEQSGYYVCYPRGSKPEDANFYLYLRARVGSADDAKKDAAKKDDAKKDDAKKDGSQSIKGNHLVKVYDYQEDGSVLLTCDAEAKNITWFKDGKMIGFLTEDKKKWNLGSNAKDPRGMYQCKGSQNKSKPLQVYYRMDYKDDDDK


Experiments:
Human CD3eg linker [1] = target: T1, Human CD3eg linker; test: SPR Biacore 8K, Ab captured on anti-human Fc, CD3 as analyte, 25 C
Experimental: (§1) Binding affinity of Dual-Fab antibodies (Dual-Ig) to human CD3 were assessed at 25 degrees C. using Biacore 8K instrument (GE Healthcare). Anti-human Fc (GE Healthcare) was immobilized onto all flow cells of a CM4 sensor chip using amine coupling kit (GE Healthcare). Antibodies were captured onto the anti-Fc sensor surfaces, then recombinant human CD3 or CD137 was injected over the flow cell. All antibodies and analytes were prepared in ACES pH 7.4 containing 20 mM ACES, 150 mM NaCl, 0.05% Tween 20, 0.005% NaN₃. Sensor surface was regenerated each cycle with 3M MgCl₂. […] CD137 binding affinity assay was conducted in same condition except assay temperature was set at 37 degrees C.

[2] = target: T2, Human CD137 extracellular domain (ECD) (human); test: SPR Biacore 8K, Ab captured on anti-human Fc, CD137 as analyte, 37 C
T2 construct: also called Human CD137 ECD; recombinant human CD137
T2 sequence (chain, as listed by the source limits assumed): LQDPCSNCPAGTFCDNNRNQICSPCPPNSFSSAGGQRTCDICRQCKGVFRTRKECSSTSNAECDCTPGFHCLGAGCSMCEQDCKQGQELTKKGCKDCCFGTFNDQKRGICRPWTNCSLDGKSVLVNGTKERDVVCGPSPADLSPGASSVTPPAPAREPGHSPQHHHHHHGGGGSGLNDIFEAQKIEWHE
Experimental: as §1

[3] = target: T2, Human CD137 extracellular domain (ECD); test: as above; remark: listed apart in the source
Experimental: as §1, with “Dual-Ig” for “Dual-Fab”, “antibodies” for “antibodies (Dual-Ig)”

Human CD3eg linker [4] = target: T1, Human CD3eg linker; test: SPR Biacore 8K, 25 C; reference xGPC3/DualAE05-xSG1350kSG1349hV11
Experimental: as §1, with “Dual-Ig” for “Dual-Fab”, “antibodies” for “antibodies (Dual-Ig)”
This is caused by faster off rate in FAST-Ig construct. […] This is caused by faster off rate in FAST-Ig construct.

Human CD3eg linker [5] = target: T1, Human CD3eg linker; test: SPR Biacore 8K, Ab captured on anti-human Fc, CD3 as analyte, 25 C
Experimental: as §1, with “Dual-Ig” for “Dual-Fab”, “antibodies” for “antibodies (Dual-Ig)”

| Kd (Human CD3eg linker [1]) [nM] | koff (Human CD3eg linker [1]) [s⁻¹] | kon (Human CD3eg linker [1]) [M⁻¹ s⁻¹] | Kd [2] [nM] | koff [2] [s⁻¹] | kon [2] [M⁻¹ s⁻¹] | Kd [3] [nM] | koff [3] [s⁻¹] | kon [3] [M⁻¹ s⁻¹] | fold weaker binding affinity than CrossMab xSG1350 (Human CD3eg linker [4]) [fold] | Kd (Human CD3eg linker [5]) [nM] | koff (Human CD3eg linker [5]) [s⁻¹] | kon (Human CD3eg linker [5]) [M⁻¹ s⁻¹] | Binder |
| --- | --- | --- | --- | --- | --- | --- | --- | --- | --- | --- | --- | --- | --- |
| 20.2 | 0.00192 | 95000 | 208 | 0.00311 | 15000 |  |  |  |  |  |  |  | H0888L0581 (antibody, V domains shown, Dual-Ig with an Fc; also called DualAE02; dBBDu183H0888/dBBDu072L0581) VH: QVQLVESGGGLVQPGRSLRLSCAASGFKFSNVWMHWVRQAPGKGLEWVAQIKDKWNAYAAYYAPSVKGRFTISRDDSKNSIYLQMNSLKTEDTAVYYCHYIHYASASTLLPAFGIDAWGQGTTVTVSS VL: DIVMTQSPLSLPVTPGEPASISCQPSQEVVHMNRNTYLHWYQQKPGQAPRLLIYKVSNRFPGVPDRFSGSGSGTDFTLKISRVEAEDVGVYYCAQGTSHPFTFGQGTKLEIK |
| 57 | 0.00658 | 116000 | 195 | 0.00269 | 13800 |  |  |  |  |  |  |  | H1595L0581 (antibody, V domains shown, Dual-Ig with an Fc; also called DualAE24; dBBDu183H1595/dBBDu072L0581) VH: QVQLVESGGGLVQPGRSLRLSCAASGFKFSNTWMHWVRQAPGKGLEWVAQIKDKYNAYAAYYAPSVKGRFTISRDDSKNSIYLQMNSLKTEDTAVYYCHYIHYASASTLLPAFGVDAWGQGTTVTVSS VL: DIVMTQSPLSLPVTPGEPASISCQPSQEVVHMNRNTYLHWYQQKPGQAPRLLIYKVSNRFPGVPDRFSGSGSGTDFTLKISRVEAEDVGVYYCAQGTSHPFTFGQGTKLEIK |
|  |  |  |  |  |  | 43.5 | 0.00063 | 14500 | ~3 | 751 | 0.0628 | 83500 | GPC3EK/DualAE05KE-SG1365k1363hV11 (bispecific antibody, V domains shown, 1+1 tri-specific, FAST-Ig format; Full chains not tied by name) VH 1: QVQLVQSGAEVKKPGASVTVSCKASGYTFTDYEMHWIREPPGEGLEWIGAIDGPTPDTAYSEKFKGRVTLTADKSTSTAYMELSSLTSEDTAVYYCTRFYSYTYWGQGTLVTVSS VL 1: DIVMTQSPLSLPVTPGEPASISCRSSQPLVHSNRNTYLHWYQKKPGQAPRLLIYKVSNRFSGVPDRFSGSGSGTDFTLKISRVEAEDVGVYYCGQGTQVPYTFGQGTKLEIK VH 2: QVQLVESGGGLVQPGRSLRLSCAASGFKFSNVWFHWVRKAPGKGLEWVAQIKDYYNAYAAYYAPSVKGRFTISRDDSKNSIYLQMNSLKTEDTAVYYCHYVHYASASTLLPAEGVDAWGQGTTVTVSS VL 2: DIVMTQSPLSLPVTPGEPASISCQPSQEVVHMNRNTYLHWYQEKPGQAPRLLIYKVSNRFPGVPDRFSGSGSGTDFTLKISRVEAEDVGVYYCAQGTSHPFTFGQGTKLEIK |

The remaining lines, values behind:

| Binder | Kd (Human CD3eg linker [1]) [nM] | koff (Human CD3eg linker [1]) [s⁻¹] | kon (Human CD3eg linker [1]) [M⁻¹ s⁻¹] | Kd [2] [nM] | koff [2] [s⁻¹] | kon [2] [M⁻¹ s⁻¹] | Kd [3] [nM] | koff [3] [s⁻¹] | kon [3] [M⁻¹ s⁻¹] | fold weaker binding affinity than CrossMab xSG1350 (Human CD3eg linker [4]) [fold] | Kd (Human CD3eg linker [5]) [nM] | koff (Human CD3eg linker [5]) [s⁻¹] | kon (Human CD3eg linker [5]) [M⁻¹ s⁻¹] |
| --- | --- | --- | --- | --- | --- | --- | --- | --- | --- | --- | --- | --- | --- |
| H0883 (antibody, V domains shown, Dual-Ig with an Fc; also called DualAE27; dBBDu183H0883/dBBDu072L) VH: QVQLVESGGGLVQPGRSLRLSCAASGFTFSNAWMHWVRQAPGKGLEWVAQIKDKGNAYAAYYAPSVKGRFTISRDDSKNSIYLQMNSLKTEDTAVYYCRYVHYASASTLLPAFGVDAWGQGTTVTVSS VL: DIVMTQSPLSLPVTPGEPASISCQASQELVHMNRNTYLHWYQQKPGQAPRLLIYKVSNRFPGVPDRFSGSGSGTDFTLKISRVEAEDVGVYYCAQGTSVPFTFGQGTKLEIK | 110 | 0.00999 | 90700 |  |  |  |  |  |  |  |  |  |  |
| H1573L0581 (antibody, V domains shown, Dual-Ig with an Fc; also called DualAE07; dBBDu183H1573/dBBDu072L0581) VH: QVQLVESGGGLVQPGRSLRLSCAASGFKFSNVWFHWVRQAPGKGLEWVAQIKDYYNAYAAYYAPSVKGRFTISRDDSKNSIYLQMNSLKTEDTAVYYCHYVHYASASTLLPAFGVDAWGQGTTVTVSS VL: DIVMTQSPLSLPVTPGEPASISCQPSQEVVHMNRNTYLHWYQQKPGQAPRLLIYKVSNRFPGVPDRFSGSGSGTDFTLKISRVEAEDVGVYYCAQGTSHPFTFGQGTKLEIK | 158 | 0.0188 | 121000 | 70.6 | 0.00103 | 14600 |  |  |  |  |  |  |  |
| H1579L0581 (antibody, V domains shown, Dual-Ig with an Fc; also called DualAE25; dBBDu183H1579/dBBDu072L0581) VH: QVQLVESGGGLVQPGRSLRLSCAASGFKFSHVWFHWVRQAPGKGLEWVAQIKDKYNAYAAYYAPSVKGRFTISRDDSKNSIYLQMNSLKTEDTAVYYCHYVHYASASTLLPAFGVDAWGQGTTVTVSS VL: DIVMTQSPLSLPVTPGEPASISCQPSQEVVHMNRNTYLHWYQQKPGQAPRLLIYKVSNRFPGVPDRFSGSGSGTDFTLKISRVEAEDVGVYYCAQGTSHPFTFGQGTKLEIK | 273 | 0.034 | 124000 | 275 | 0.00406 | 14800 |  |  |  |  |  |  |  |
